From patent publication US10273464B2, “Methods and isolated protein compositions for isoprenoid diphosphate synthesis” (The Salk Institute for Biological Studies, priority 2009, dated 2019)
Where two headings read alike, the source gives them in different places.

Key:
[1] = pyruvate kinase-lactate dehydrogenase coupled assay, IP as variable substrate; format: biochemical; conditions: 25° C.
Protocol: All specific activity and kinetic measurements were performed using the pyruvate kinase-lactate dehydrogenase coupled assay with reference to a previously established protocol (Lindsley, 2001, Methods Mol. Biol. 95:57-64.). The reaction includes the following components in a 200 ul volume: 7 U pyruvate kinase, 10 U lactate dehydrogenase, 2 mM phosphoenolpyruvate, 0.16 mM NADH, 50 mM TRIS HCl pH 8.0, 100 mM KCl, 8 mM MgCl2, 4 mM ATP, and variable concentrations of IP (purchased from Larodan Fine Chemicals). The reaction was initiated by the addition of IPK (0.15 ug) and was followed by observing the depletion of NADH at 340 nm over time, expressed as Δ(AU340)/Δt, which was converted to Δ(ADP)/Δt. These values were then plotted against substrate concentration in GraphPad Prism® (Version 5.01 for Windows) to compute the kinetic parameters kcat and Km using the “nonlinear regression enzyme kinetic analysis” option.
From the results discussed above, it is evident that His60 from IPK plays an important role in both substrate and product binding. This is accomplished through a hydrogen bonding interaction between the Nε2 atom of His60 and a non-bridging O atom from the terminal phosphate group on either the substrate (IP) or the product (IPP). From all crystal structure data, it is apparent that the Nε2 group of His60 (and not the Nδ1 group) is relevant for binding and may therefore be reasonably assumed by one skilled in the art to be relevant for IPK-mediated catalysis. To confirm this hypothesis, His60 was mutated to Ala, Asn, and Gln. The Asn and Gln mutations were made based on the rationale that their side chains contain N atoms that are isosteric with the Nδ1 and Nε2 groups on His, respectively.

[2] = pyruvate kinase-lactate dehydrogenase coupled assay, Km for ATP; format: biochemical; conditions: 25° C.
Protocol: All specific activity and kinetic measurements were performed using the pyruvate kinase-lactate dehydrogenase coupled assay with reference to a previously established protocol (Lindsley, 2001, Methods Mol. Biol. 95:57-64.). […] The reaction was initiated by the addition of IPK (0.15 ug) and was followed by observing the depletion of NADH at 340 nm over time, expressed as Δ(AU340)/Δt, which was converted to Δ(ADP)/Δt. These values were then plotted against substrate concentration in GraphPad Prism® (Version 5.01 for Windows) to compute the kinetic parameters kcat and Km using the “nonlinear regression enzyme kinetic analysis” option.

[3] = coupled IPK / 5-epi-aristolochene synthase (TEAS) vial assay, GC-MS, FP to FPP conversion; format: biochemical; conditions: 10 μM IPK, 150 μM FP, ATP, Mg, pH 8.0, 20 minutes at 55° C.; 5-epi-aristolochene quantified by GC-MS
Protocol: FIG. 10: Assays of IPK and mutants. The single mutants of IPK, I86A and I146A, and the double mutant I86A/I146A, were tested with the C15-substrate farnesyl monophosphate (FP) using a coupled assay with a terpene cyclase (TEAS). In the first step of the reaction, IPK was incubated with magnesium, ATP, and FP at pH 8.0 for 20 minutes at 55° C. (assuming sufficient time for conversion of FP to FPP). In the second step of the reaction, a small sample of the first reaction was added to a glass vial containing magnesium and a sesquiterpene cyclase known as tobacco 5-epi-aristolochene synthase (TEAS), and this reaction was incubated overnight at 25° C. Assuming complete conversion of FPP to 5-epi-aristolochene, the reaction was extracted with ethyl acetate and the amount of 5-epi-aristolochene was quantified by GC-MS analysis.
FIGS. 11A-11B: Farnesyl phosphate (FP) phosphorylation by IPK chain length mutants. FIG. 11A: FIG. 11A depicts the coupled IPK-sesquiterpene synthase reaction used to test for FP transphosphorylation. FIG. 11B: FIG. 11B depicts comparative bar graph showing several IPK mutants qualitatively tested for their ability to convert FP to FPP, expressed as a percentage of maximal production of 5-epi-aristolocene produced from IPK-generated FPP using wild-type IPK and identical concentrations of wild-type tobacco 5-epi-aristolochene synthase incubated for equivalent lengths of time.
IPK mutants (at a final concentration of 10 μM) were incubated in a 50 μl reaction with 150 μM farnesyl monophosphate (FP), 7 mM MgCl2, 4 mM ATP, and 50 mM TRIS.HCl pH 8.0 for 20 minutes at 55° C. 10 μl of this reaction was then added to a 500 μl reaction containing 45 ug of the terpene cyclase 5-epi-aristolochene synthase (TEAS) and 10 mM MgCl2 in a 3-component buffer system (25 mM MES, 50 mM TRIS.HCl, 25 mM CAPS) at pH 7.0. A method known as the “vial assay” (O'Maille et al., 2004, Anal. Biochem. 335:210-217) was employed by overlaying this aqueous layer with 500 μl of ethyl acetate, incubating overnight at 25° C., and vortexing to extract the terpene product into the organic layer prior to quantitative GC-MS analysis. Both negative and positive control reactions were conducted as follows. For the negative control, no IPK was added to the first reaction. For the positive control, […] of FPP (equivalent to the amount that would be present assuming complete FP to FPP turnover) was added to the TEAS reaction.
Similar studies were conducted using FPP modeled into the active site of IPK. The reaction of IPK on FP to form FPP is depicted in FIG. 10. The I146A I86A single-residue mutations, and the […] double mutation were tested with the C15-substrate farnesyl monophosphate (FP) using a coupled assay with a terpene cyclase (TEAS). In the first step of the reaction, IPK was incubated with magnesium, ATP, and FP at pH 8.0 for 20 minutes at 55° C., which was judged as sufficient time for conversion of FP to FPP. In the second step of the reaction, a small sample of the first reaction was added to a glass vial containing magnesium and a sesquiterpene cyclase known as tobacco 5-epi-aristolochene synthase (TEAS), and this reaction was incubated overnight at 25° C. Assuming complete conversion of FPP to 5-epi-aristolochene, the reaction was extracted with ethyl acetate and the amount of 5-epi-aristolochene was quantitated by GC-MS analysis.

[4] = read-out: Km value for UMP; cited from earlier work
[5] = read-out: Km value for ATP; cited from earlier work
[6] = measured in one instance (other than Table 4)

Molecule	Km [1] [µM]	kcat [1] [s⁻¹]	Km [2] [µM]	conversion (phosphorylation) of FP to FPP [3]	Km [1, 6] [µM]	Km [2, 6] [µM]	Km [4] [µM]	Km [5] [µM]
IPK-Mjannaschii: isopentenyl phosphate kinase from Methanocaldococcus jannaschii, SEQ ID NO:1, wild type (protein, listed as Methanocaldococcus jannaschii) MLTILKLGGSILSDKNVPYSIKWDNLERIAMEIKNALDYYKNQNKEIKLILVHGGGAFGHPVAKKYLKIEDGKKIFINMEKGFWEIQRAMRRFNNIIIDTLQSYDIPAVSIQPSSFVVFGDKLIFDTSAIKEMLKRNLVPVIHGDIVIDDKNGYRIISGDDIVPYLANELKADLILYATDVDGVLIDNKPIKRIDKNNIYKILNYLSGSNSIDVTGGMKYKIEMIRKNKCRGFVFNGNKANNIYKALLGEVEGTEIDFSE	4.3 ± 0.6	1.46 ± 0.03	198	significantly less phosphorylation				
IPK-Mmaripaludis: isopentenyl phosphate kinase homolog from Methanococcus maripaludis, SEQ ID NO:8 (protein, listed as Methanococcus maripaludis) MFAILKLGGSILCDKNVPYSINWENLENIAIEIKEAIEYYSSKNEDFKLIIVHGGGSFGHPVAKKYLKNEKFEDMGKGYWEIQKAMRKFNNIVIEELQNFEPAVSIQASSFITFNHKSNLHFDTNAIEKMLDKGLIPVIHGDIVIDEKTDNFKIFSGDHALPFLSKKLNPDLSLHASDVDGVWDSEFKIIENINSKNIEDVLKSLKPSNKEDVTGGMHLKVMECYNLGIETIIFNGNKKRNIYNALLKNVKGTLIN	21.4 ± 4.2	13.1 ± 0.5			16.1	96 ± 6		
UMPK from Sulfolobus solfataricus: uridine monophosphate kinase from Sulfolobus solfataricus, literature comparison (Jensen et al., 2007) (protein, UniProt Q97ZE2 1-227, looked up) Uridylate kinase: MMNIILKISGKFFDEDNVDNLIVLRQSIKELADNGFRVGIVTGGGSTARRYIKLAREIGIGEAYLDLLGIWASRLNAYLVMFSLQDLAYMHVPQSLEEFIQDWSHGKVVVTGGFQPGQSTAAVAALVAEASSSKTLVVATNVDGVYEKDPRIYADVKLIPHLTTQDLRKILEGSQSVQAGTYELLDPLAIKIVERSKIRVIVMNYRKLNRIIDILKGEEVSSIIEPV							14	81
